Among the data in patent publication US20180282410A1 (Hoffmann-La Roche, published 2018) are binding result and Kd values, retold here.

For assay [1], the target named is T1, murine (mu) Robo 4 ECD-PreS-Avi-His (mouse).
T1 construct: also called recombinant murine Robo 4; murine Robo 4
T1 chain: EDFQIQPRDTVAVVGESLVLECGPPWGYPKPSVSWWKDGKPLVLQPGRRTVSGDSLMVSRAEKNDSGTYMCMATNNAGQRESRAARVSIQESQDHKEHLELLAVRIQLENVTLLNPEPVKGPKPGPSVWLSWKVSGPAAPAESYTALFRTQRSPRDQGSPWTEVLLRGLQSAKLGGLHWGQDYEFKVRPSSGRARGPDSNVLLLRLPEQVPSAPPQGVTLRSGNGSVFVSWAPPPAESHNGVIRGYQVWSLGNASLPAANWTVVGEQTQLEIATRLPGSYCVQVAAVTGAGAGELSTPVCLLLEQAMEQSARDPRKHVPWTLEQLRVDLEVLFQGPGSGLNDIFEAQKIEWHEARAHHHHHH
The assay can be described thus: SPR, BioRad ProteOn XPR36, purified Fab.

Assay [2] concerns the target T2, biotinylated ectodomain of human Robo 4 with C-terminal AcTEV protease site, Avi-tag and 6xHis-tag (human, biotin on the Avi-tag (in vivo biotinylated via co-expression of BirA)).
T2 construct: also called biotinylated human Robo 4
T2 chain: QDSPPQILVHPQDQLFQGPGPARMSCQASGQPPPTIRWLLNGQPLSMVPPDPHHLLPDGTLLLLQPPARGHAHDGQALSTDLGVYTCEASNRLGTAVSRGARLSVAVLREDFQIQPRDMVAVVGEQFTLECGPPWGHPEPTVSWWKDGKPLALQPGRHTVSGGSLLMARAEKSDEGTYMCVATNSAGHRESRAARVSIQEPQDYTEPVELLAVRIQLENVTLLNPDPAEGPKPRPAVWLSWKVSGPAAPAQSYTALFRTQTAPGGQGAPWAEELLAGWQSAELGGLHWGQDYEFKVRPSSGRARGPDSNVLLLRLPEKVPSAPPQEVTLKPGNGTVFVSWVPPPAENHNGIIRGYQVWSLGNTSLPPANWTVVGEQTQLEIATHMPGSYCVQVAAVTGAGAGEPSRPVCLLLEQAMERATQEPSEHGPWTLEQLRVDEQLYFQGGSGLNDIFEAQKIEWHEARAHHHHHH
The assay can be described thus: SPR, BioRad ProteOn XPR36, purified Fab, monovalent affinity; human Robo 4; Fab, monovalent affinity. In general terms: In SPR one partner is held on a chip, and binding of the other changes the refractive index at the surface.

Assay [3] deals with T3, recombinant cynomolgus Robo 4 ECD fused to AcTEV protease recognition site, Avi- and 6xHis-tag (cynomolgus).
T3 construct: Biotinylated in the avidity assay
T3 chain: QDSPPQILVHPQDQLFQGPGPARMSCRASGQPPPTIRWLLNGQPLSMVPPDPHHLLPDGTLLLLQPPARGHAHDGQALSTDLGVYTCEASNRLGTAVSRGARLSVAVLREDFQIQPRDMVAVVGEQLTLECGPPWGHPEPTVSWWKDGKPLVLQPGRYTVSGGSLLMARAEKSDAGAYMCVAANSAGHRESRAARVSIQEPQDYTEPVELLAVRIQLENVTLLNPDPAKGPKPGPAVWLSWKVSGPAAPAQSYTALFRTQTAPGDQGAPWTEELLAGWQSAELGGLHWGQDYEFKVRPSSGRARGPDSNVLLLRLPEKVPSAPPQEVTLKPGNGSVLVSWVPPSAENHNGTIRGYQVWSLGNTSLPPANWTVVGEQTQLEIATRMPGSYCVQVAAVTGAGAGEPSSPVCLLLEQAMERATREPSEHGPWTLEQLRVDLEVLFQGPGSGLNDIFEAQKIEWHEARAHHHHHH
As to the kind of experiment: SPR, BioRad ProteOn XPR36, purified Fab, monovalent affinity; cynomolgus Robo 4; Fab, monovalent affinity.

B1: 7G2 Fab (phage display clone, bacterially expressed) (Fab, V domains shown)
VH: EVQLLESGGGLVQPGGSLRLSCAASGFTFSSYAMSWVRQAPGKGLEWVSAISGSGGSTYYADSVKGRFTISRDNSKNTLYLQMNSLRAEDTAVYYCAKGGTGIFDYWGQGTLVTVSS
VL: EIVLTQSPGTLSLSPGERATLSCRASQSVSSSYLAWYQQKPGQAPRLLIYGASSRATGIPDRFSGSGSGTDFTLTISRLEPEDFAVYYCQQGQLPPRTFGQGTKVEIK
notes: also called clone 7G2
As usually defined, the Kd is the equilibrium constant for the complex coming apart. Regarding B1, in assay [1], the binding result is reported as “no binding”. The Kd turned out to be 14.9 nM in assay [2] and 20.5 nM in assay [3].
